In US20230263916A1 (NANOMAB TECHNOLOGY, published 2023):

B1: Nanobody No. 33 (VHH)
VHH: QVQLQESGGGSVQAGGSLRLSCTASGFTFDDVDMGWYRQAPGNECELVSTISSDGSTYYADSVKGRFTISQDNAKNTVYLQMNSLKPEDTAMYYCAAARYSDYEGMCGYWSQGTQVTVSS
notes: also called 33; not shown: tags (HA, His) implied by anti-HA detection and nickel column
B2: Nanobody No. 34 (VHH)
VHH: QVQLQESGGGSVQAGGSLRLSCTVSGFTFDDVDMGWYRQAPGNECELVSTISSDGSTYYADSVKGRFTISQDNAKNTVYLQMNSLKPEDTAMYYCAAARYSDYEGMCGYWSQGTQVTVSS
notes: also called 34; not shown: tags (HA, His) implied by anti-HA detection and nickel column
B3: Nanobody No. 32 (VHH)
VHH: QVQLQESGGGSVQAGGSLRLSCTASGFTFDDVDMGWYRQASGNECELVSTISSDGSTYYADSVKGRFTISQDNAKNTVYLQMNSLKPEDTAMYYCAAARYSDYEGMCGYWSQGTQVTVSS
notes: also called 32; not shown: tags (HA, His) implied by anti-HA detection and nickel column
B4: Nanobody No. 3 (VHH)
VHH: QVQLQESGGGSVQAGGSLRLSCTASGFTFDDSDVRWYRQAPGRECKLVSSISSDRSAYYEDSVKGRFTISQDNAKNTVYLQMNSLKPEDTAVYYCAAHPLHYELGTCAALDYWGRGTQVTVSS
notes: not shown: tags (HA, His) implied by anti-HA detection and nickel column
B5: Nanobody No. 4 (VHH)
VHH: QVQLQESGGGLVQPGGSLRLSCTASRFTFDDSDMAWYRQAPGNECELVSIISSDGSTYYADSVKGRFTISLDNTKSTVYLQMNSLKPEDTAVYYCAAHPLHYELGTCAALDYWGRGTQVTVSS
notes: as for B4
B6: Nanobody No. 27 (VHH)
VHH: QVQLQESGGGSVQAGETLRLSCTASGFTFDDSDMGWYRQAPGNECELVSTISSDGSTYYADSVKGRFTISQDNAKNTVYLQMNSLKPEDTAVYYCAADHGGGYELGTCAALDYWGRGTQVTVSS
notes: also called 27; not shown: tags (HA, His) implied by anti-HA detection and nickel column
B7: Nanobody No. 29 (VHH)
VHH: QVQLQESGGGSVQAGGSLRLSCTASGFTFDDLDMRWYRQAPGNECELVSIINSDGRTYYADSVKGRFAISQNNAKNTVYLQMNSLKPEDTAVYYCAADQHRYGLGTCEALDYWGRGTQVTVSS
notes: also called 29; not shown: tags (HA, His) implied by anti-HA detection and nickel column
B8: Nanobody No. 19 (VHH)
VHH: QVQLQESGGGSVQAGGSLRLSCTASGFTFDDSDSDMGWYRQAPGNECELVSSISSDGSTYYADSVKGRFTISQDNAKNTVYLQMNSLKPEDTAVYYCAAINSGYELGTCESLDYWGRGTQVTVSS
notes: also called 19; not shown: tags (HA, His) implied by anti-HA detection and nickel column
B9: Nanobody No. 21 (VHH)
VHH: QVQLQESGGGLVQPRGSLRLSCTASGFTFDDSDSDMGWYRQAPGNECELVSSISSDGSTYYADSVKGRFTISQDNAKNTVYLQMNSLKPEDTAVYYCAAINSGYELGTCESLDYWGRGTQVTVSS
notes: also called 21; not shown: tags (HA, His) implied by anti-HA detection and nickel column
B10: Nanobody No. 24 (VHH)
VHH: QVQLQESGGGSVQAGETLRLSCTASGFTFDDSDSDMGWYRQAPGNECELVSSISSDGSTYYADSVKGRFTISQDNAKNTVYLQMNSLKPEDTAVYYCAAINSGYELGTCESLDYWGRGTQVTVSS
notes: also called 24; not shown: tags (HA, His) implied by anti-HA detection and nickel column
B11: Nanobody No. 25 (VHH)
VHH: QVQLQESGGGSVQAGETLRLSCTASGFTFDDSDSDMGWYRQAPGNECELVSSISSDGSTYYADSVKGRFTISQDNAKNTVYLQMNSPKPEDTAVYYCAAINSGYELGTCESLDYWGRGTQVTVSS
notes: also called 25; not shown: tags (HA, His) implied by anti-HA detection and nickel column
B12: Nanobody No. 5 (VHH)
VHH: QVQLQESGGGSVQAGGSLRLSCTVSGFSFDDSDMGWYRRAPGNECELVSGISRDGSTYYADSVKGRFTISQDNAKNWVYLQMNSLKPEDTAVYYCAAATYSDYVCDYWTQGTQVTVSS
notes: as for B4
B13: Nanobody No. 12 (VHH)
VHH: QVQLQESGGGSVQAGETLRLSCTASGFTFDDSDMGWYRQAPGNECELVSTISSDGSTYYADSVKGRFTISQDNAKNTVYLQMNSLKPEDTAVYYCAADGHKYELGTCAALDYWGRGTQVTVSS
notes: also called 12; not shown: tags (HA, His) implied by anti-HA detection and nickel column
B14: Nanobody No. 28 (VHH)
VHH: QVQLQESGGGLVQPGGSLRLSCAASGFTFGDSGMGWYRQAPGNECELVSSVSSDGSTYYADSVKGRFTISQDNAKNTVYLRMNSLKPEDTAVYYCAADDHKYELGTCEALDYWGRGTQVTVSS
notes: also called 28; not shown: tags (HA, His) implied by anti-HA detection and nickel column
B15: Nanobody No. 1 (VHH)
VHH: QVQLQESGGGSVQAGETLRLSCTASGFTFDDSDMGWYRQAPGNECELVSTISSDGSTYYADSVKGRFTISQDNAKNTVYLQMNSLKPEDTAVYYCAAHPLHYELGTCAALDYWGRGTQVTVSS
notes: as for B4
B16: Nanobody No. 8 (VHH)
VHH: QVQLQESGGGSVQAGETLRLSCTASGFTFDESVMGWYRQAPGNECELVSTISSDGSTYYSNSVKGRFTISQDNAKNTVYLQMNSLKPEDTAVYYCAADDHTYELGTCEALNYWGRGTQVTVSS
notes: as for B4
B17: Nanobody No. 2 (VHH)
VHH: QVQLQESGGGSVQAGETLRLSCTASGFTFDDSDMGWYRQAPGNECELVSTISSDGSTYYADSVKGRFTISQDNAKNAVYLQMNSLKPEDTAVYYCAAHPLHYELGTCAALDYWGRGTQVTVSS
notes: as for B4
B18: Nanobody No. 30 (VHH)
VHH: QVQLQESGGGSVQAGETLRLSCTASGFTFDDSDMGWYRQAPGNECELVSTISSDGRTYYADSVKGRFAISQNNAKNTVYLQMNSLKPEDTAVYYCAADQHRYGLGTCEALDYWGRGTQVTVSS
notes: also called 30; not shown: tags (HA, His) implied by anti-HA detection and nickel column
B19: Nanobody No. 15 (VHH)
VHH: QVQLQESGGGSVQAGGSLRLSCTASRFTFDDSDMGWYRQAPGNECELVSTISSDGATYYANSVKGRFTISQDNAANTVYLQMNSLKPEDTAVYYCAALEWEYELGTCEALDYWGQGTQVTVSS
notes: also called 15; not shown: tags (HA, His) implied by anti-HA detection and nickel column
B20: Nanobody No. 14 (VHH)
VHH: QVQLQESGGGSVQAGETLRLSCTASGFTFDDSDMGWYRQAPGNECELVSRISSDGSTYYADSVKGRFTISQDNAKNTVYLQMNSLKPEDTAVYYCAALEWEYELGTCEALDYWGQGTQVTVSS
notes: also called 14; not shown: tags (HA, His) implied by anti-HA detection and nickel column
B21: Nanobody No. 11 (VHH)
VHH: QVQLQESGGGSVQAGETLRLSCTASGFTFDDSDMGWYRQAPGNECELVSHISSGGSTYYADSVKGRFTISQDNAKNTVYLQMNSLKPEDTAVYYCAADGSNYELGTCAALDYWGRGTQVTVSS
notes: also called 11; not shown: tags (HA, His) implied by anti-HA detection and nickel column
B22: Nanobody No. 16 (VHH)
VHH: QVQLQESGGGSVQAGGSLRLSCTASGFTFDDSDMVWYRQAPGNECELVSRISSDGSTYYADSVKGRFTISQDNAKNTVYLQMNSLKPEDTAVYYCAALEWEYELGTCEALDYWGQGTQVTVSS
notes: also called 16; not shown: tags (HA, His) implied by anti-HA detection and nickel column
B23: Nanobody No. 20 (VHH)
VHH: QVQLQESGGGSVQAGGSLRLSCTASGFTFDDSVMGWFRKAPGNECELVSTISSDGSTYYADSVKGRFTISQDNAKNTVYLQMNNLKPEDTAVYYCAAINSGYELGTCESLDYWGRGTQVTVSS
notes: also called 20; not shown: tags (HA, His) implied by anti-HA detection and nickel column
B24: Nanobody No. 31 (VHH)
VHH: QVQLQESGGGSVQAGETLRLSCTASGFTFNDSNMGWYRQAPGHECELVSTISSDGSTYYADSVKGRFTISQNNARNTVYLQMNSLKPEDTAVYYCAGDWGYELGICTSLDYWGQGTQVTVSS
notes: also called 31; not shown: tags (HA, His) implied by anti-HA detection and nickel column
B25: Nanobody No. 6 (VHH)
VHH: QVQLQESGGGSVQAGETLRLSCTASGFTFDDSDMGWYRQAPGNECELVSHISSDGSTYYADSVKGRFTISQDNAKNTVFLQMNSLKPEDTAVYYCAADKDARGYELGTCESLDYWGRGTQVTVSS
notes: as for B4
B26: Nanobody No. 7 (VHH)
VHH: QVQLQESGGGSVQAGETLRLSCTASGFTFDDSDMGWYRQAPGNECELVSTISSDGSTYYADSVKGRFTISQDNAKNTVYLQMNSLKPEDTAVYYCAADKDARGYELGTCESLDYWGRGTQVTVSS
notes: as for B4
B27: Nanobody No. 18 (VHH)
VHH: QVQLQESGGGSVQAGQTLRLSCTASGFTFDDSDMAWYRQAPGNECELVSKMRSDGSTYYADSVKGRFTISQDNAKNTVYLQMNSLKPEDTAVYYCAEDLPYGLGTCTSLDYWGRGTQVTVSS
notes: also called 18; not shown: tags (HA, His) implied by anti-HA detection and nickel column

Key:
[1] = target: T1, human Her2 (ECD)-Fc protein (human, UniProt P04626 23-652); assay: PE-ELISA, crude extract on antigen-coated plate
T1 construct: extracellular domain; Made in HEK293F cells; also called hHer2 (ECD)-Fc antigen; Her2 (ECD)-Fc antigen; not shown: TEV restriction site at the C-terminal of hHer2 (ECD); IgG1 Fc of the pFUSE-IgG1 vector
Method: (§1) (1) 10 μg Her2 (ECD)-Fc antigen (10 μg Fc in NaHCO₃ as control) dissolved in 100 mM NaHCO₃ (pH 8.2) was coupled to a NUNC plate then incubated at 4° C. overnight.
(§2) (5) The unbound antibody was washed off with PBST.
(§3) (6) When the OD value of the sample was over 3 times of the OD value of the control sample (Ratio+/−>3), the tested sample was determined to be a positive clone. […] Then all the positive clones were transferred to LA medium for plasmid extraction and sequencing.

[2] = target: T1, human Her2 (ECD)-Fc protein; assay: PE-ELISA, A405 of antigen well over control well
Method: as §1, §2, §3

Binder | A405+ [1] [A405] | Ratio(+/-) [2]
B1 | 2.05 | 21.3
B2 | 2.26 | 20
B3 | 2.36 | 25.3
B4 | 1.31 | 13
B5 | 1.97 | 21.2
B6 | 1.66 | 20.5
B7 | 1.48 | 18.8
B8 | 1.77 | 19.6
B9 | 2.09 | 20.3
B10 | 2.68 | 23.7
B11 | 1.97 | 22.4
B12 | 1.1 | 12.7
B13 | 2.18 | 25.6
B14 | 1.86 | 23.3
B15 | 1.72 | 22.3
B16 | 2.56 | 28
B17 | 1.53 | 19.3
B18 | 2.31 | 23.9
B19 | 2.27 | 26.1
B20 | 1.96 | 24.4
B21 | 1.88 | 25.5
B22 | 1.79 | 23.5
B23 | 1.47 | 10.2
B24 | 1.65 | 21.4
B25 | 2.14 | 23.4
B26 | 2.24 | 27.4
B27 | 1.59 | 19.2
